According to US20120277164A1 (IMPERIAL INNOVATIONS, published 2012):
Square brackets hold non-standard residues; d marks the D form. Ends that are not written are not given here. * marks the point of attachment. Fmoc = O=C(OCC1c2ccccc2-c2ccccc21)*; Cha = N[C@@H](CC1CCCCC1)C(=O)O; ClZ = O=C(OCc1ccccc1Cl)*; Cbz = O=C(OCc1ccccc1)*; Bz = O=C(c1ccccc1)*; Myr = myristyl

T1: Gadd45β/MKK7 complex (biotin-hGadd45β with coated GST-MKK7, ELISA format) (human, UniProt O75293 1-160; O14733 1-419, biotinylated (sites not given))
T1 construct: not shown: glutathione S-transferase (GST) fusion partner
T1 sequence (looked up) 1: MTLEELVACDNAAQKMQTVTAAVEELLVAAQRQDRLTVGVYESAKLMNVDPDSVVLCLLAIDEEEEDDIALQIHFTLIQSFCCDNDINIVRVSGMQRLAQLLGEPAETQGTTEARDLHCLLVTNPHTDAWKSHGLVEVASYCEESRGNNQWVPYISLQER
T1 sequence (looked up) 2: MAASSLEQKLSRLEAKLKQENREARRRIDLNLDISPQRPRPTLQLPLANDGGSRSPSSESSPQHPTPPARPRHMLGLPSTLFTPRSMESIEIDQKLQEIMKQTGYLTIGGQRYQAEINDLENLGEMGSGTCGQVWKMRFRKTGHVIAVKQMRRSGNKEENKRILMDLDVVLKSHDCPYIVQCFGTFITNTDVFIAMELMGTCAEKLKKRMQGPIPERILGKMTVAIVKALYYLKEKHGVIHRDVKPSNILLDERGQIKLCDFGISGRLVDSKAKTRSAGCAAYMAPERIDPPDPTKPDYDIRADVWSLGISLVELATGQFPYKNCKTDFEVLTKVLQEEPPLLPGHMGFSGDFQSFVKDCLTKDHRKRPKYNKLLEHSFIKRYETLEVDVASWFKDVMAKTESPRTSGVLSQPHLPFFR

T2: Gadd45β/MKK7 complex (biotin-hGadd45β with coated GST-MKK7, ELISA format) (human) (UniProt O75293)
T2 sequence (biotinylated (sites not stated), looked up) 1: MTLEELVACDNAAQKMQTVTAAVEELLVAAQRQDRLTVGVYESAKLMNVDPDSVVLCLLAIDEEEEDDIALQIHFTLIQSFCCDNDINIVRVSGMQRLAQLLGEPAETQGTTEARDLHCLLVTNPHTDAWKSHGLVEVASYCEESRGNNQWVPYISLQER
T2 sequence (biotinylated (sites not stated), looked up) 2: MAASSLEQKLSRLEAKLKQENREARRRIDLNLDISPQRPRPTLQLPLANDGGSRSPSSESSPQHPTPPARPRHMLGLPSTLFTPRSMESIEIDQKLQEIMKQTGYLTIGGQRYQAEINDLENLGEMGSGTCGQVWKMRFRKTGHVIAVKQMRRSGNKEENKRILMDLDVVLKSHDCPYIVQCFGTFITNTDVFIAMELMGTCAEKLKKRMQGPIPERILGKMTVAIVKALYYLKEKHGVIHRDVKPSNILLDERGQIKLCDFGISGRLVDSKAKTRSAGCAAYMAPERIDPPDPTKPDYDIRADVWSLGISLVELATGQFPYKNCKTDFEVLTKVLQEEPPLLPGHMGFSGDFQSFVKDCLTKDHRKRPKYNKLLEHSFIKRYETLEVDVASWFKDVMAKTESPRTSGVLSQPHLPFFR


Target: T1, Gadd45β/MKK7 complex (biotin-hGadd45β …)
Experiment: competition ELISA; coated GST-MKK7, biotin-hGadd45β; single dose

Compared with Ac-WDHF-NH2 [Ac-WDHF-NH2], Ac-WDHW-NH2 [Ac-WDHW-NH2] is higher in “% Inhibition of Gadd45β-MKK7 binding” value: 28% for the first, 50% for the second.

Compared with Ac-WDKF-NH2 [Ac-WDKF-NH2], Ac-WDKW-NH2 [Ac-WDKW-NH2] is higher in “% Inhibition of Gadd45β-MKK7 binding” value: 26% for the first, 69% for the second.

Compared with Ac-WDRF-NH2 [Ac-WDRF-NH2], Ac-WDRW-NH2 [Ac-WDRW-NH2] is higher in “% Inhibition of Gadd45β-MKK7 binding” value: 46% for the first, 93% for the second.

First: Ac-WEHF-NH2 [Ac-WEHF-NH2]
Second: Ac-WEHW-NH2 [Ac-WEHW-NH2]
The “% Inhibition of Gadd45β-MKK7 binding” value of the first is lower: 36% for the first, 75% for the second.

Ac-WEKF-NH2 [Ac-WEKF-NH2] and Ac-WEKW-NH2 [Ac-WEKW-NH2] are the same in “% Inhibition of Gadd45β-MKK7 binding” value: 65% for the first, 65% for the second.

For Ac-WERF-NH2 [Ac-WERF-NH2], the “% Inhibition of Gadd45β-MKK7 binding” value was 29%.

Target: T1, Gadd45β/MKK7 complex (biotin-hGadd45β …)
Experiment: as above
Remark: another data set of the same source

First: ClZ-YDHQ-NH2 [2CI-Z-YDHQ-NH2]
Second: ClZ-YERF-NH2 [2CI-Z-YERF-NH2]
The “% Inhibition of Gadd45β-MKK7 binding” value of the first is higher: 40% for the first, 38% for the second.

First: {3‑OH‑4MeO‑benzoic acid}-YERF-NH2 [3-OH-4MeO-Benzoid acid-YERF-NH2]
Second: Ac-PERF-NH2 [Ac-PERF-NH2]
The “% Inhibition of Gadd45β-MKK7 binding” value of the first is higher: 86% for the first, 24% for the second.

Compared with Ac-YARF-NH2 [Ac-YARF-NH2], Ac-YEAF-NH2 [Ac-YEAF-NH2] is lower in “% Inhibition of Gadd45β-MKK7 binding” value: 17% for the first, 13% for the second.

Compared with Ac-YEPF-NH2 [Ac-YEPF-NH2], Ac-YERA-NH2 [Ac-YERA-NH2] is higher in “% Inhibition of Gadd45β-MKK7 binding” value: 13% for the first, 28% for the second.

First: Ac-YERP-NH2 [Ac-YERP-NH2]
Second: Ac-YPRF-NH2 [Ac-YPRF-NH2]
The “% Inhibition of Gadd45β-MKK7 binding” value of the first is lower: 0% for the first, 13% for the second.

Compared with Bz-YERF-NH2 [Benzoic acid-YERF-NH2], Fmoc-YERF-NH2 [Fmoc-YERF-NH2] is higher in “% Inhibition of Gadd45β-MKK7 binding” value: 24% for the first, 60% for the second.

Going from Myr-YDHQ-NH2 [Myr-YDHQ-NH2] to Myr-YERF-NH2 [Myr-YERF-NH2], the “% Inhibition of Gadd45β-MKK7 binding” value rises from 28% to 37%.

Compared with Cbz-YDHQ-NH2 [Z-YDHQ-NH2], Cbz-YERF-NH2 (also called Z-LTP2) [Z-YERF-NH2] is higher in “% Inhibition of Gadd45β-MKK7 binding” value: 13% for the first, 78% for the second.

First: {3‑hydroxy‑4‑methoxybenzoyl}-YDHF-NH2 [3-OH-4MeO-Benzoid acid-YDHF-NH2]
Second: Fmoc-YDHF-NH2 [Fmoc-YDHF-NH2]
The “% Inhibition of Gadd45β-MKK7 binding” value of the first is higher: 81% for the first, 58% for the second.

Cbz-YDHF-NH2 (also called Z-LTP1) [Z-YDHF-NH2] and Cbz-YD(OMe)HF-NH2 [Z-YD(OMe)HF-NH2] are the same in “% Inhibition of Gadd45β-MKK7 binding” value: 84% for the first, 84% for the second.

Going from ClZ-YDHF-NH2 [2CI-Z-YDHF-NH2] to Myr-YDHF-NH2 [Myr-YDHF-NH2], the “% Inhibition of Gadd45β-MKK7 binding” value falls from 38% to 26%.

For Bz-YDHF-NH2 [Benzoic acid-YDHF-NH2], the “% Inhibition of Gadd45β-MKK7 binding” value was 0%.

Target: T2, Gadd45β/MKK7 complex (biotin-hGadd45β with coated GST-MKK7, ELISA format) (human)
Experiment: competition ELISA; coated GST-MKK7 42 nM, biotin-hGadd45β 21 nM

AC-Tyr-Met-Phe-NH2 (peptide) and Ac-Tyr-Gln-Phe-NH2 (peptide) cannot be ordered by IC50: greater than 10 nM for the first, greater than 10 nM for the second.

Ac-YPF-NH2 (peptide) and Ac-YHF-NH2 (peptide) are within 1.5-fold of each other in IC50: 0.645 nM for the first, 0.69 nM for the second.

Compared with Ac-Tyr-Arg-[Cha], Cbz-Tyr-Arg-Phe-NH2 is lower in IC50: greater than 5 nM for the first, 0.1 nM for the second.

Going from Z-Tyr-Glu-Phe-NH2 (mDTP2) (peptide) to H-YHF-NH2 (peptide), the IC50 rises from 0.158 nM to 0.645 nM (4.1-fold).

Going from Ac-YRY-NH2 (peptide) to Cbz-Tyr-Asp-Phe-NH2, the IC50 falls from 0.758 nM to 0.162 nM (4.7-fold).

First: Ac-[Cha]-Arg-Phe-NH2
Second: H-YRY-NH2 (peptide)
The IC50 of the first is higher: greater than 5 nM for the first, 0.75 nM for the second.

Ac-Tyr-Asn-Phe-NH2 (peptide) and Ac-Tyr-Leu-Phe-NH2 (peptide) are within 1.5-fold of each other in IC50: 1.9 nM for the first, 1.8 nM for the second.

Ac-[dY][dY][dR][dF]-NH2 (also: D/L configuration not given here) [Ac-Tyr-Tyr-Arg-Phe-NH2] and Cbz-[dY][dY][dE][dR][dF]-NH2 [Z-Tyr-Tyr-Glu-Arg-Phe-NH2] cannot be ordered by IC50: greater than 5 nM for the first, greater than 5 nM for the second.

Compared with Ac-[dY][dQ][dR][dF]-NH2 (also: D/L configuration not given here) [Ac-Tyr-Gln-Arg-Phe-NH2], Ac-[dY][dM][dR][dF]-NH2 (also: D/L configuration not given here) [Ac-Tyr-Met-Arg-Phe-NH2] is higher in IC50: 5 nM for the first, greater than 10 nM for the second. The first is the more potent here.

Compared with Ac-[dY][dN][dR][dF]-NH2 (also: D/L configuration not given here) [Ac-Tyr-Asn-Arg-Phe-NH2], Ac-[dY][dL][dR][dF]-NH2 (also: D/L configuration not given here) [Ac-Tyr-Leu-Arg-Phe-NH2] is 2-fold lower in IC50: 10 nM for the first, 5 nM for the second. The second is the more potent here.

Cbz-[dY][dD][dH][dQ]-NH2 [Z-Tyr-Asp-His-Gln-NH2] and Cbz-[dY][dY][dD][dH][dQ]-NH2 [Z-Tyr-Tyr-Asp-His Gln-NH2] cannot be ordered by IC50: greater than 10 nM for the first, greater than 10 nM for the second.
